The results in this text go back to patent publication US20040018971A1 (published 2004).

The target of the first test is HLA-A*0301 (purified HLA class I molecule) (human). The test is described as follows: competition vs 125I standard peptide, purified HLA.
LVHRDLAAR [HER2/neu peptide, position 841, 9 amino acids]: the relative binding ratio is 0.004 ratio (IC50 standard/IC50 test).
Take LTLIDTNRSR [HER2/neu peptide, position 181, 10 amino acids]: the relative binding ratio was 0.0002 ratio (IC50 standard/IC50 test).
Same read-out and setting: under MIDSECRPR [HER2/neu peptide, position 960, 9 amino acids] stands 0.0017 ratio (IC50 standard/IC50 test).
The same measure, in the same setting: under MALESILRRR [HER2/neu peptide, position 889, 10 amino acids] stands 0.0011 ratio (IC50 standard/IC50 test).

In a further test the target is T1, HLA-A*1101 (purified HLA class I molecule) (human).
T1 construct: Purified MHC molecule
In words: competition vs 125I standard peptide, purified HLA.
With LVHRDLAAR [HER2/neu peptide, position 841, 9 amino acids], the relative binding ratio is 0.0014 ratio (IC50 standard/IC50 test).
The same measure, in the same setting: under LTLIDTNRSR [HER2/neu peptide, position 181, 10 amino acids] stands 0.0005 ratio (IC50 standard/IC50 test); under MIDSECRPR [HER2/neu peptide, position 960, 9 amino acids], 0.0006 ratio (IC50 standard/IC50 test); under MALESILRRR [HER2/neu peptide, position 889, 10 amino acids], 0.0003 ratio (IC50 standard/IC50 test).

A further test addresses T2, HLA-A*2401 (human).
T2 construct: Purified HLA class I molecule (kind: MHC class I); also called A*2402
The test is described as follows: inhibition of 125I-labelled standard peptide binding to purified HLA, gel filtration. On the technique in general: Size exclusion chromatography separates by hydrodynamic size, large species first.
Regarding AFSPAFDNL (also called Her2/neu.1212 (9-mer)) [HER2/neu peptide, position 1212, 9 amino acids], the relative binding ratio is 0.0011 ratio (IC50 of standard peptide / IC50 of test peptide).
On to AWPDSLPDL (also called Her2/neu.414 (9-mer)) [HER2/neu peptide, position 414, 9 amino acids], for which the relative binding ratio was 0.0041 ratio (IC50 of standard peptide / IC50 of test peptide).
As to DFGLARLLDI (also called Her2/neu.863 (10-mer)) [HER2/neu peptide, position 863, 10 amino acids], the relative binding ratio was 0.0002 ratio (IC50 of standard peptide / IC50 of test peptide).
For the molecule AYSLTLQGLGI (also called Her2/neu.440 (11-mer)) [HER2/neu peptide, position 440, 11 amino acids], the relative binding ratio is 0.023 ratio (IC50 of standard peptide / IC50 of test peptide).
For CYQDTILW (also called Her2/neu.162 (8-mer)) [HER2/neu peptide, position 162, 8 amino acids], the relative binding ratio is 0.012 ratio (IC50 of standard peptide / IC50 of test peptide).
For AMPNQAQMRI (also called Her2/neu.705 (10-mer)) [HER2/neu peptide, position 705, 10 amino acids], the relative binding ratio is 0.0002 ratio (IC50 of standard peptide / IC50 of test peptide).
For the molecule EFAGCKKI (also called Her2/neu.363 (8-mer)) [HER2/neu peptide, position 363, 8 amino acids], the relative binding ratio was -0.0003 ratio (IC50 of standard peptide / IC50 of test peptide).
Same read-out and setting: under CMQIAKGMSYL (also called Her2/neu.826 (11-mer)) [HER2/neu peptide, position 826, 11 amino acids] stands -0.0003 ratio (IC50 of standard peptide / IC50 of test peptide); under CFVHTVPW (also called Her2/neu.475 (8-mer)) [HER2/neu peptide, position 475, 8 amino acids], 0.019 ratio (IC50 of standard peptide / IC50 of test peptide).
On the same count and under the same terms, under AMPNQAQMRIL (also called Her2/neu.705 (11-mer)) [HER2/neu peptide, position 705, 11 amino acids] stands -0.0003 ratio (IC50 of standard peptide / IC50 of test peptide).
The same measure, in the same setting: under CFVHTVPWDQL (also called Her2/neu.475 (11-mer)) [HER2/neu peptide, position 475, 11 amino acids] stands 0.0003 ratio (IC50 of standard peptide / IC50 of test peptide); under EFAGCKKIF (also called Her2/neu.363 (9-mer)) [HER2/neu peptide, position 363, 9 amino acids], 0.0003 ratio (IC50 of standard peptide / IC50 of test peptide); under AFGTVYKGIW (also called Her2/neu.730 (10-mer)) [HER2/neu peptide, position 730, 10 amino acids], 0.001 ratio (IC50 of standard peptide / IC50 of test peptide).
AYSLTLQGL (also called Her2/neu.440 (9-mer)) [HER2/neu peptide, position 440, 9 amino acids]: the relative binding ratio was 0.13 ratio (IC50 of standard peptide / IC50 of test peptide).
For CYGLGMEHL (also called Her2/neu.342 (9-mer)) [HER2/neu peptide, position 342, 9 amino acids], the relative binding ratio was 0.018 ratio (IC50 of standard peptide / IC50 of test peptide).
The same measure, in the same setting: under AFGTVYKGIWI (also called Her2/neu.730 (11-mer)) [HER2/neu peptide, position 730, 11 amino acids] stands 0.0008 ratio (IC50 of standard peptide / IC50 of test peptide); under CYQDTILWKDI (also called Her2/neu.162 (11-mer)) [HER2/neu peptide, position 162, 11 amino acids], 0.0016 ratio (IC50 of standard peptide / IC50 of test peptide).
Same read-out and setting: under AFDNLYYW (also called Her2/neu.1216 (8-mer)) [HER2/neu peptide, position 1216, 8 amino acids] stands 0.0039 ratio (IC50 of standard peptide / IC50 of test peptide).
On the same count and under the same terms, under AFGTVYKGI (also called Her2/neu.730 (9-mer)) [HER2/neu peptide, position 730, 9 amino acids] stands 0.0002 ratio (IC50 of standard peptide / IC50 of test peptide); under DFGLARLL (also called Her2/neu.863 (8-mer)) [HER2/neu peptide, position 863, 8 amino acids], 0.0005 ratio (IC50 of standard peptide / IC50 of test peptide).

Another test addresses HLA-A*1101 (human). In words: competitive inhibition of 125I-labeled probe peptide binding to purified HLA-A*1101, gel filtration.
As to CAAGCTGPK [HER2/neu peptide, position 240, 9 amino acids], the relative binding ratio is 0.0021 ratio (IC50 of standard peptide / IC50 of test peptide).
Same read-out and setting: under AFSPAFDNLY [HER2/neu peptide, position 1212, 10 amino acids] stands 0.0003 ratio (IC50 of standard peptide / IC50 of test peptide).
On the same count and under the same terms, under DLAARNVLVK [HER2/neu peptide, position 845, 10 amino acids] stands 0.0007 ratio (IC50 of standard peptide / IC50 of test peptide).
Same read-out and setting: under AMPNQAQMR (T0001 prints N there) [HER2/neu peptide, position 705, 9 amino acids] stands 0.0006 ratio (IC50 of standard peptide / IC50 of test peptide); under DVRPQPPSPR [HER2/neu peptide, position 1144, 10 amino acids], 0.0001 ratio (IC50 of standard peptide / IC50 of test peptide).
In the case of CLLDHVRENR [HER2/neu peptide, position 805, 10 amino acids], the relative binding ratio is 0.0001 ratio (IC50 of standard peptide / IC50 of test peptide).
On the same count and under the same terms, under DSECRPRFR [HER2/neu peptide, position 962, 9 amino acids] stands -0.0002 ratio (IC50 of standard peptide / IC50 of test peptide); under CVNCSQFLR (also called Her2/neu.528) [HER2/neu peptide, position 528, 9 amino acids], 0.031 ratio (IC50 of standard peptide / IC50 of test peptide).
Same read-out and setting: under ASCVTACPY (also called Her2/neu.293) [HER2/neu peptide, position 293, 9 amino acids] stands 0.0074 ratio (IC50 of standard peptide / IC50 of test peptide); under DLSYMPIWK [HER2/neu peptide, position 607, 9 amino acids], 0.01 ratio (IC50 of standard peptide / IC50 of test peptide).
Same read-out and setting: under ALESILRRR [HER2/neu peptide, position 890, 9 amino acids] stands 0.0006 ratio (IC50 of standard peptide / IC50 of test peptide).
Consider CAGGCARCK [HER2/neu peptide, position 220, 9 amino acids], for which the relative binding ratio was -0.0002 ratio (IC50 of standard peptide / IC50 of test peptide).
In the case of CVTACPYNY [HER2/neu peptide, position 295, 9 amino acids], the relative binding ratio is 0.0004 ratio (IC50 of standard peptide / IC50 of test peptide).
In the case of ASPLDSTFY [HER2/neu peptide, position 997, 9 amino acids], the relative binding ratio was 0.0004 ratio (IC50 of standard peptide / IC50 of test peptide).
Turning to CSPMCKGSR [HER2/neu peptide, position 195, 9 amino acids], the relative binding ratio was -0.0001 ratio (IC50 of standard peptide / IC50 of test peptide).
On the same count and under the same terms, under CTGTDMKLR [HER2/neu peptide, position 26, 9 amino acids] stands 0.0005 ratio (IC50 of standard peptide / IC50 of test peptide); under ALTLIDTNR [HER2/neu peptide, position 180, 9 amino acids], 0.0005 ratio (IC50 of standard peptide / IC50 of test peptide); under CVARCPSGVK [HER2/neu peptide, position 596, 10 amino acids], 0.0042 ratio (IC50 of standard peptide / IC50 of test peptide).
Still for that read-out and setting: under CSKPCARVCY [HER2/neu peptide, position 334, 10 amino acids] stands 0.0002 ratio (IC50 of standard peptide / IC50 of test peptide).

A further test addresses HLA-A*1101 (human). In words: inhibition of 125I-labelled probe peptide binding to purified HLA-A*1101, gel filtration; relative to standard peptide 940.06.
For MALESILRRR (also called HER2/neu 889-898) [HER2/neu A11 motif peptide, position 889, 10 amino acids], the relative binding ratio was 0.0003 ratio (IC50 of standard peptide / IC50 of test peptide).
For the molecule MGDLVDAEEY (also called HER2/neu 1014-1023) [HER2/neu A11 motif peptide, position 1014, 10 amino acids], the relative binding ratio was 0.0002 ratio (IC50 of standard peptide / IC50 of test peptide).
On to MIDSECRPR [HER2/neu A11 motif peptide, position 960, 9 amino acids], for which the relative binding ratio was 0.0006 ratio (IC50 of standard peptide / IC50 of test peptide).
The same measure, in the same setting: under LVHRDLAAR (also called HER2/neu 841-849) [HER2/neu A11 motif peptide, position 841, 9 amino acids] stands 0.0014 ratio (IC50 of standard peptide / IC50 of test peptide); under LTLIDTNRSR (also called HER2/neu 181-190) [HER2/neu A11 motif peptide, position 181, 10 amino acids], 0.0005 ratio (IC50 of standard peptide / IC50 of test peptide).
